Target: SARS-CoV-2 RBD protein (immobilised in SPR) (SARS-CoV-2, UniProt P0DTC2 319-541)
Assay: SPR

B1: mAb 35B5 (antibody, V domains shown)
VH: QVQLLESGGGLVQPGRSLRLSCAASGFTFDDYAMHWVRQAPGKGLEWVSGVSWNSGTIGYADSVKGRFTISRDNAKNSLYLHMRSLRAEDTALYYCAKAVEMVRGLMGLGADPEYGMDVWGQGTTVTVSS
VL: not shown
koff: 5.49e-06 s⁻¹
